{"source": "patent US20230357367A1", "binders": {"B1": {"name": "AB-1 Fab (Fab, V domains shown)", "VH": "EVQLVESGAEVKKPGESLKISCKGSGYTFTRYWIGWVRQMPGKGLEWMGIIYPGDSDVRYSPSFQGHVTISADKSISTAYLQWNSLKASDTAMYYCARLPQYCSKGVCYRWFDPWGQGTLVTVSS", "VL": "EIVLTQSPSSVSASVGDRVTITCRASQGISSWLAWYQQKPGKAPKLLIYAASSLQSGVPSRFSGSGSGTDFTLTISSLQPEDFATYYCQQGHSFPYTFGQGTNLEIK"}, "B2": {"name": "Reference Antibody (antibody, V domains shown)", "VH": "B1 VH with V58T, K105N, Y109Q", "VL": "B1 VL with H92N"}, "B3": {"name": "AB-1 (antibody, V domains shown)", "VH": "B1 VH", "VL": "B1 VL"}, "B4": {"name": "Reference Antibody Fab (Fab, V domains shown)", "VH": "B1 VH with V58T, K105N, Y109Q", "VL": "B1 VL with H92N"}}, "key": {"[1]": {"biological_target": "T1, SARS-CoV-2 spike S2 peptide 1149-1163, biotinylated (SARS-CoV-2)", "test": "SPR, Fab over captured biotin-peptide, 25 C"}, "[2]": {"biological_target": "T2, SARS-CoV-2 spike S2 peptide 1149-1167 (C-terminal end of the stem helix), biotinylated (SARS-CoV-2)", "test": "SPR, Fab over captured biotin-peptide, 25 C"}, "[3]": {"biological_target": "T3, SARS-CoV-2 spike S2 peptide 1153-1167, biotinylated (SARS-CoV-2)", "test": "SPR, Fab over captured biotin-peptide, 25 C"}, "[4]": {"biological_target": "SARS-CoV-2 spike S2 peptide 1143-1162 (stem helix region), biotinylated (SARS-CoV-2)", "test": "SPR, Fab over captured biotin-peptide, 25 C"}, "[5]": {"biological_target": "T2, SARS-CoV-2 spike S2 peptide 1149-1167 …", "test": "SPR, Fab over captured biotin-peptide, 25 C", "remark": "listed apart in the source"}, "[6]": {"biological_target": "T1, SARS-CoV-2 spike S2 peptide 1149-1163, …", "test": "DELFIA, IgG titrated on captured biotin-peptide", "parameters": "unit not given beside the values"}, "[7]": {"biological_target": "SARS-CoV-2 spike S2 peptide 1133-1147, biotinylated (SARS-CoV-2)", "test": "DELFIA, IgG titrated on captured biotin-peptide", "parameters": "unit not given beside the values"}, "[8]": {"biological_target": "HIV-1 Env peptide (negative control 15-mer), biotinylated (HIV-1)", "test": "DELFIA, IgG titrated on captured biotin-peptide", "parameters": "unit not given beside the values"}, "[9]": {"biological_target": "SARS-CoV-2 spike S2 peptide 1137-1151, biotinylated (SARS-CoV-2)", "test": "DELFIA, IgG titrated on captured biotin-peptide", "parameters": "unit not given beside the values"}, "[10]": {"biological_target": "SARS-CoV-2 spike S2 peptide 1157-1171, biotinylated (SARS-CoV-2)", "test": "DELFIA, IgG titrated on captured biotin-peptide", "parameters": "unit not given beside the values"}, "[11]": {"biological_target": "T2, SARS-CoV-2 spike S2 peptide 1149-1167 …", "test": "DELFIA, IgG titrated on captured biotin-peptide", "parameters": "unit not given beside the values"}, "[12]": {"biological_target": "T3, SARS-CoV-2 spike S2 peptide 1153-1167, …", "test": "DELFIA, IgG titrated on captured biotin-peptide", "parameters": "unit not given beside the values"}}, "note": "Residue numbers refer to the chain shown, from its start. Like-named read-outs stand apart in the source and are kept apart here."}
{"binder": "B1", "values": [{"measurement": "Kd", "setting": "[1]", "value": 83.1, "unit": "nM"}, {"measurement": "koff", "setting": "[1]", "value": 0.146, "unit": "s⁻¹"}, {"measurement": "kon", "setting": "[1]", "value": "1.76e+06", "unit": "M⁻¹ s⁻¹"}, {"measurement": "Kd", "setting": "[2]", "value": 0.9, "unit": "nM"}, {"measurement": "koff", "setting": "[2]", "value": 0.00241, "unit": "s⁻¹"}, {"measurement": "kon", "setting": "[2]", "value": "2.61e+06", "unit": "M⁻¹ s⁻¹"}, {"measurement": "Kd", "setting": "[3]", "value": 111, "unit": "nM"}, {"measurement": "koff", "setting": "[3]", "value": 0.0774, "unit": "s⁻¹"}, {"measurement": "kon", "setting": "[3]", "value": 697000, "unit": "M⁻¹ s⁻¹"}, {"measurement": "Kd", "setting": "[4]", "value": 12.3, "unit": "nM"}, {"measurement": "koff", "setting": "[4]", "value": 0.037, "unit": "s⁻¹"}, {"measurement": "kon", "setting": "[4]", "value": "3e+06", "unit": "M⁻¹ s⁻¹"}, {"measurement": "Kd", "setting": "[5]", "value": 0.925, "unit": "nM"}]}
{"binder": "B2", "values": [{"measurement": "AUC", "setting": "[6]", "value": "3.26e+06"}, {"measurement": "AUC", "setting": "[7]", "value": 3260}, {"measurement": "AUC", "setting": "[8]", "value": 16100}, {"measurement": "AUC", "setting": "[9]", "value": 5050}, {"measurement": "AUC", "setting": "[10]", "value": 6010}, {"measurement": "AUC", "setting": "[11]", "value": "3.05e+06"}, {"measurement": "AUC", "setting": "[12]", "value": "3.12e+06"}]}
{"binder": "B3", "values": [{"measurement": "AUC", "setting": "[8]", "value": 9860}]}
{"binder": "B4", "values": [{"measurement": "Kd", "setting": "[1]", "value": 244, "unit": "nM"}, {"measurement": "koff", "setting": "[1]", "value": 0.0663, "unit": "s⁻¹"}, {"measurement": "kon", "setting": "[1]", "value": 272000, "unit": "M⁻¹ s⁻¹"}, {"measurement": "Kd", "setting": "[2]", "value": 5.4, "unit": "nM"}, {"measurement": "koff", "setting": "[2]", "value": 0.00498, "unit": "s⁻¹"}, {"measurement": "kon", "setting": "[2]", "value": 929000, "unit": "M⁻¹ s⁻¹"}, {"measurement": "Kd", "setting": "[3]", "value": 311, "unit": "nM"}, {"measurement": "koff", "setting": "[3]", "value": 0.0535, "unit": "s⁻¹"}, {"measurement": "kon", "setting": "[3]", "value": 172000, "unit": "M⁻¹ s⁻¹"}, {"measurement": "Kd", "setting": "[5]", "value": 5.36, "unit": "nM"}]}
